Experimental data reported in PMC10070494, “WSSV exploits AMPK to activate mTORC2 signaling for proliferation by enhancing aerobic glycolysis”.

Biological target: rGST (UniProt P08515 1-218)
Assay: EMSA; 1 and 3 μg rGST; Chemiluminescent EMSA Kit (Beyotime), buffer, salt and pH not stated; competitor 10 min then biotin probe 20 min at 25 °C; native 6% polyacrylamide gel
Conditions: protein: recombinant; chain copies: 2; blunt

Sequence of rGST (P08515 whole entry): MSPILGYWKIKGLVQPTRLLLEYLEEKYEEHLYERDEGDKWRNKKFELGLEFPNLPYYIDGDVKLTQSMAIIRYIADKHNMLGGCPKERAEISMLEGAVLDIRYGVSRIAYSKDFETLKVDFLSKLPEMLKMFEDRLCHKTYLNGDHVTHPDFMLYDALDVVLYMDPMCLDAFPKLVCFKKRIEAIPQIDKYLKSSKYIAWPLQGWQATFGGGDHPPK

B1: HK-WT probe (dsDNA)
DNA 1: CAAATGACTAGAACGTGCGACATTAGTGAA
DNA 2: TTCACTAATGTCGCACGTTCTAGTCATTTG
B1: no binding.
